We go through 4 molecules from US20240390512A1 (Daiichi Sankyo, published 2024).

The target of experiment [1] is T1, cynomolgus monkey CDH6, on cells (cynomolgus monkey, UniProt P55285 54-790 (human entry)).
T1 construct: Expressed from pcDNA3.1-cynoCDH6; also called cynoCDH6
T1 sequence: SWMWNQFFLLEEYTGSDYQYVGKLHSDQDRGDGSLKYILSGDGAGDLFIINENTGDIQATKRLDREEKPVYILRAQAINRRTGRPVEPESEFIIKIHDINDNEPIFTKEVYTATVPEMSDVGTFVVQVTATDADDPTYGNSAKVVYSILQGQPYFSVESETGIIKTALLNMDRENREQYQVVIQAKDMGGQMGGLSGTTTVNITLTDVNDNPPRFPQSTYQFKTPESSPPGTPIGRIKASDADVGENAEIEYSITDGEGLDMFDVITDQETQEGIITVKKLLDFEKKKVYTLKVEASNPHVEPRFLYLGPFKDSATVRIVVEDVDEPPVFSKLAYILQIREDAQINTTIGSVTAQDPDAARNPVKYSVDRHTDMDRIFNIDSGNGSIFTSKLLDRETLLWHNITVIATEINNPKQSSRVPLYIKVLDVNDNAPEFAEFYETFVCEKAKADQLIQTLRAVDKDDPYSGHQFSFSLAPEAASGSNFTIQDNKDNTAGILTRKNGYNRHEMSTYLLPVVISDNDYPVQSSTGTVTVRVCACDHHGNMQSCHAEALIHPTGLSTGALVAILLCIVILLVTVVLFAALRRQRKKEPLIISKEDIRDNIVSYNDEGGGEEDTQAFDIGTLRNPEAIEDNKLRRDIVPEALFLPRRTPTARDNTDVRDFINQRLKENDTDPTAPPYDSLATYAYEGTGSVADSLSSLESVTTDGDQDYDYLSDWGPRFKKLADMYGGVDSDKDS
Kind of experiment: Cell-ELISA and flow cytometry screening with hybridoma supernatants on transfected cells.

The target in experiment [2] is T2, human CDH6 (cadherin-6), full-length, on cells (human, UniProt P55285 54-790).
T2 construct: also called hCDH6; full-length hCDH6
T2 sequence: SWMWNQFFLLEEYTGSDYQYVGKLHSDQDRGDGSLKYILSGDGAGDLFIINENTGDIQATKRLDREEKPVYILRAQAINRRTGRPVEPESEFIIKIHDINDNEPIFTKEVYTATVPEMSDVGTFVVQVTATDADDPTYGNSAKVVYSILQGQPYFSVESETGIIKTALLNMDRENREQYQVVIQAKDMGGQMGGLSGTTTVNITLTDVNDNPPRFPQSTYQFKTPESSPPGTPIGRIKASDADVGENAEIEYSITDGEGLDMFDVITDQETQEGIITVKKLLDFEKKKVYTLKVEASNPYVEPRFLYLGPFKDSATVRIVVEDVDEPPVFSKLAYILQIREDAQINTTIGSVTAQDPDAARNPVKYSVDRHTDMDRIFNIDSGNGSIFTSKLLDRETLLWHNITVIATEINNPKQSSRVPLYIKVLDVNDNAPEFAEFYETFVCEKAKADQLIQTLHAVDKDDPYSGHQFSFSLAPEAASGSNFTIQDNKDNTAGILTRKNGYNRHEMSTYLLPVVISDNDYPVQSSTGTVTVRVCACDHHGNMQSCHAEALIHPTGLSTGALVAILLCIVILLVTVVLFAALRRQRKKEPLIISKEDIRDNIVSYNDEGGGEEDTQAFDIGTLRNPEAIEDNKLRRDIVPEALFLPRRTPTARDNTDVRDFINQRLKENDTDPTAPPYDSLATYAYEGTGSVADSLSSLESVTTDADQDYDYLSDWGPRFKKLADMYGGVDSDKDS
Nature of the experiment: flow cytometry; hCDH6-transfected 293T cells (open line) against untransfected 293T cells (shaded); antibody 10 ng/mL; anti-rat IgG-FITC. In general terms: Flow cytometry measures light scatter and fluorescence of single cells or particles in a stream.

The target in experiment [3] is T3, EC3 deletion mutant of human CDH6, on cells (human, UniProt P55285 54-790).
T3 construct: in p3×FLAG-CMV-9; also called EC3-deleted hCDH6
T3 sequence: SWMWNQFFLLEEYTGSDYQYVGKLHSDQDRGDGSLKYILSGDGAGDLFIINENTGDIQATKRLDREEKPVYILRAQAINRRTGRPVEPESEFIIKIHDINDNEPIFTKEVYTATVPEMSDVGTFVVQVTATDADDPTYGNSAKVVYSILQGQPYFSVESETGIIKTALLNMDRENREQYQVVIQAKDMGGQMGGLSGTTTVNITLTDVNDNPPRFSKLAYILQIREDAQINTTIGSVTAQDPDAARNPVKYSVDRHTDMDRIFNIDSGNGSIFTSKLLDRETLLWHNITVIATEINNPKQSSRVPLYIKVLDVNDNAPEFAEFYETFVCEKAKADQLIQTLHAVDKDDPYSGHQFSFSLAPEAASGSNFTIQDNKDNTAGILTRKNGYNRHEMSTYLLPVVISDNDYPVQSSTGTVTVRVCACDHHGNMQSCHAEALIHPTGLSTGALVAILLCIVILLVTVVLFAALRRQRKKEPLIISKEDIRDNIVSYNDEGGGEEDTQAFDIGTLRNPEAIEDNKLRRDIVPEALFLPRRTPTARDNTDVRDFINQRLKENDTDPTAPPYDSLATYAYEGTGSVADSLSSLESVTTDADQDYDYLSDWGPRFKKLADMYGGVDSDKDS
Kind of experiment: flow cytometry; 293α cells transfected with EC3-deleted hCDH6 (open line) against untransfected 293α cells (shaded); anti-rat IgG-FITC.

B1: rat anti-human CDH6 monoclonal antibody rG055 (antibody, rat IgG2b, V domains shown)
VH: EVQLQESGPGLVRPSQSLSLSCSVTDYSITSNYWGWIRRFPGNKMEWMGYITYSGYTSYNPSLQSRISITRDTSKNQFFLQLNSVTAEDTATYYCARSINHGGYSYVVDAWGPGASVTVSS
VL: DVQMTHSPSYLAASPGESVSISCKTSKNISNYLVWYQQKPGEAYKLLIYSGSTLQSGTPSRFSGSGSGTDFTLTIRSLEPEDFGLYFCQQYYEKPFTFGSGTKLEIKR
notes: Purified from hybridoma supernatant; also called rG055 antibody
For B1, the results for the binding result in experiment [1], in experiment [2] and in experiment [3] were “binds”, “binds” and “no binding (tested: 20 nM)”, respectively.

B2: rat anti-human CDH6 monoclonal antibody rG061 (antibody, rat IgG2b, V domains shown)
VH: EVQLQESGPGLVKPSQSLSLTCSVTGYSITTYYWGWIRKFPGNKMEWMGYISYSGRTSYNPSLKSRMSITRDASKNQFFLQLNSVTTDDTATYYCARSPINHGGYWYFDFWGPGTMVTVSS
VL: DVQMTQSPSYLAASPGESVSISCKATKSISNYLAWYQQKPGEAYKVLIYSGSTLQSGTPSRFSGSGSGTDFTLTIRSLEPEDFGLYSCQQYYEKPLTFGSGTKLEIKR
notes: Purified from hybridoma supernatant; also called rG061 antibody
Regarding B2, the binding result in experiment [1] was “binds”; in experiment [2] it was “binds”; in experiment [3] it was “no binding (tested: 20 nM)”.

B3: rat anti-human CDH6 monoclonal antibody rG056 (antibody, rat IgG2b, V domains shown)
VH: EVQLQESGPGLVKPSQSLSLTCSVTDYSITTYFWGWIRKFPGNKMEWMGYMSYRGGTSYNPSLKSRISITRDTSKNQFFLQLNSVTTEDTATYYCARCPNYGGHSLVFDYWGQGVMVTVSS
VL: DVQMTQSPSSLAASPGESVSISCRATKSIGIYLAWYQQKPGKTFKLLIYSGSTLQSGTPSRFSGSGSGTDFTLTIRSLEPEDFGLYFCQQFYENPFTFGSGTKLEIRR
notes: Purified from hybridoma supernatant; also called rG056 antibody
As to B3, the results for the binding result in experiment [1], in experiment [2] and in experiment [3] were “binds”, “binds” and “no binding (tested: 20 nM)”, respectively.

B4: rat anti-human CDH6 monoclonal antibody rG019 (antibody, rat IgG2b, V domains shown)
VH: QVQLQQSGAELVKPGSSVKISCKASGYTFTRNFMHWIKQQPGNGLEWIGWIYCGDGETEYNQKFNGKATLTADRSSSTAYMELSRLTSEDSAVYFCARGVYGGFAGGYFDFWGQGVMVTVSS
VL: DIQMTQSPSLLSASVGDRVTLNCKASQNIYKNLAWYQQKLGEGPKLLIYDANTLQTGIPSRFSGSGSGSDFTLTISSLQPEDVATYFCQQYYSGWAFGGVTNLELKRA
notes: Purified from hybridoma supernatant; also called rG019 antibody
Consider B4, for which the binding result in experiment [1] is reported as “binds”; in experiment [2], “binds”; in experiment [3] it was “no binding (tested: 20 nM)”.
